This is an account of results in the supplement of paper PMC5998384.

Data set [1] relates to HeLa Kyoto. As to the kind of experiment: solubility in G1/S (NP-40 vs SDS abundance) (log2 ratio); higher = more soluble. Particulars: cell cycle stage: G1/S.
For data set [2], the system named is HeLa Kyoto. As to the kind of experiment: solubility change mitosis vs G1/S (difference of NP-40 vs SDS log2 ratios) (log2 ratio difference); higher = more soluble in mitosis.
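For solubility change mitosis vs G1/S (difference of NP-40 vs SDS log2 ratios) in this document: synchronized HeLa Kyoto cells (double thymidine block for G1/S, nocodazole release for mitosis), protein amounts in NP-40 versus SDS lysates quantified by mass spectrometry, three biological replicates.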
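For solubility in G1/S (NP-40 vs SDS abundance) in this document: HeLa Kyoto cells arrested at G1/S by double thymidine block, proteins quantified by TMT10plex mass spectrometry in mild NP-40 versus SDS extracts, three biological replicates.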

For the substance “MAGPQMGGSAEDHPPRKRHAAEKQKKKTVIYTKCFEFESATQRPIDRQRYDENEDLSDVEEIVSVRGFSLEEKLRSQLYQGDFVHAMEGKDFNYEYVQREALRVPLIFREKDGLGIKMPDPDFTVRDVKLLVGSRRLVDVMDVNTQKGTEMSMSQFVRYYETPEAQRDKLYNVISLEFSHTKLEHLVKRPTVVDLVDWVDNMWPQHLKEKQTEATNAIAEMKYPKVKKYCLMSVKGCFTDFHIDFGGTSVWYHVFRGGKIFWLIPPTLHNLALYEEWVLSGKQSDIFLGDRVERCQRIELKQGYTFFIPSGWIHAVYTPVDSLVFGGNILHSFNVPMQLRIYEIEDRTRVQPKFRYPFYYEMCWYVLERYVYCVTQRSHLTQEYQRESMLIDAPRKPSIDGFSSDSWLEMEEEACDQQPQEEEEKDEEGEGRDRAPKPPTDGSTSPTSTPSEDQEALGKKPKAPALRFLKRTLSNESEESVKSTTLAVDYPKTPTGSPATEVSAKWTHLTEFELKGLKALVEKLESLPENKKCVPEGIEDPQALLEGVKNVLKEHADDDPSLAITGVPVVTWPKKTPKNRAVGRPKGKLGPASAVKLAANRTTAGARRRRTRCRKCEACLRTECGECHFCKDMKKFGGPGRMKQSCIMRQCIAPVLPHTAVCLVCGEAGKEDTVEEEEGKFNLMLMECSICNEIIHPGCLKIKESEGVVNDELPNCWECPKCNHAGKTGKQKRGPGFKYASNLPGSLLKEQKMNRDNKEGQEPAKRRSECEEAPRRRSDEHSKKVPPDGLLRRKSDDVHLRKKRKYEKPQELSGRKRASSLQTSPGSSSHLSPRPPLGSSLSPWWRSSLTYFQQQLKPGKEDKLFRKKRRSWKNAEDRMALANKPLRRFKQEPEDELPEAPPKTRESDHSRSSSPTAGPSTEGAEGPEEKKKVKMRRKRRLPNKELSRELSKELNHEIQRTENSLANENQQPIKSEPESEGEEPKRPPGICERPHRFSKGLNGTPRELRHQLGPSLRSPPRVISRPPPSVSPPKCIQMERHVIRPPPISPPPDSLPLDDGAAHVMHREVWMAVFSYLSHQDLCVCMRVCRTWNRWCCDKRLWTRIDLNHCKSITPLMLSGIIRRQPVSLDLSWTNISKKQLSWLINRLPGLRDLVLSGCSWIAVSALCSSSCPLLRTLDVQWVEGLKDAQMRDLLSPPTDNRPGQMDNRSKLRNIVELRLAGLDITDASLRLIIRHMPLLSKLHLSYCNHVTDQSINLLTAVGTTTRDSLTEINLSDCNKVTDQCLSFFKRCGNICHIDLRYCKQVTKEGCEQFIAEMSVSVQFGQVEEKLLQKLS [KDM2B]”, in the data set on HeLa Kyoto [1], the “solubility in G1/S (log2)” value is -0.295. The “solubility change mitosis (log2)” value with HeLa Kyoto [2] came out at 0.226.
On to “MASSLLAGERLVRALGPGGELEPERLPRKLRAELEAALGKKHKGGDSSSGPQRLVSFRLIRDLHQHLRERDSKLYLHELLEGSEIYLPEVVKPPRNPELVARLEKIKIQLANEEYKRITRNVTCQDTRHGGTLSDLGKQVRSLKALVITIFNFIVTVVAAFVCTYLGSQYIFTEMASRVLAALIVASVVGLAELYVMVRAMEGELGEL [TMEM199]”, for which the “solubility in G1/S (log2)” value in the data set with HeLa Kyoto [1] is -0.349. Further, the “solubility change mitosis (log2)” value in the data set with HeLa Kyoto [2] is -0.0986.
As to “MAENLKGCSVCCKSSWNQLQDLCRLAKLSCPALGISKRNLYDFEVEYLCDYKKIREQEYYLVKWRGYPDSESTWEPRQNLKCVRILKQFHKDLERELLRRHHRSKTPRHLDPSLANYLVQKAKQRRALRRWEQELNAKRSHLGRITVENEVDLDGPPRAFVYINEYRVGEGITLNQVAVGCECQDCLWAPTGGCCPGASLHKFAYNDQGQVRLRAGLPIYECNSRCRCGYDCPNRVVQKGIRYDLCIFRTDDGRGWGVRTLEKIRKNSFVMEYVGEIITSEEAERRGQIYDRQGATYLFDLDYVEDVYTVDAAYYGNISHFVNHSCDPNLQVYNVFIDNLDERLPRIAFFATRTIRAGEELTFDYNMQVDPVDMESTRMDSNFGLAGLPGSPKKRVRIECKCGTESCRKYLF [SUV39H1]”, the “solubility in G1/S (log2)” value with HeLa Kyoto [1] is -0.773. Moreover, in the data set with HeLa Kyoto [2], the “solubility change mitosis (log2)” value is -0.415.
For ANKRD11 the same measures were -0.497 and 0.268.
